The text below walks through data of IntAct's records for PubMed 18498651.

B1: Double-stranded RNA-binding protein Staufen homolog 1 (Homo sapiens), O95793-2 (parent)
chain: MKLGKKPMYKPVDPYSRMQSTYNYNMRGGAYPPRYFYPFPVPPLLYQVELSVGGQQFNGKGKTRQAAKHDAAAKALRILQNEPLPERLEVNGRESEEENLNKSEISQVFEIALKRNLPVNFEVARESGPPHMKNFVTKVSVGEFVGEGEGKSKKISKKNAAIAVLEELKKLPPLPAVERVKPRIKKKTKPIVKPQTSPEYGQGINPISRLAQIQQAKKEKEPEYTLLTERGLPRRREFVMQVKVGNHTAEGTGTNKKVAKRNAAENMLEILGFKVPQAQPTKPALKSEEKTPIKKPGDGRKVTFFEPGSGDENGTSNKEDEFRMPYLSHQQLPAGILPMVPEVAQAVGVSQGHHTKDFTRAAPNPAKATVTAMIARELLYGGTSPTAETILKNNISSGHVPHGPLTRPSEQLDYLSRVQGFQVEYKDFPKNNKNEFVSLINCSSQPPLISHGIGKDVESCHDMAALNILKLLSELDQQSTEMPRTGNGPMSVCGRC

Variants of B1 are the subject of the assay. Particulars: with gag_hv1h2 gag.
Consider MKLGKKPMYKPVDPYSRMQSTYNYNMRGGAYPPRYFYPFPVPPLLYQVELSVGGQQFNGKGKTRQAAKHDAAAKALRILQNEPLPERLEVNGRESEEENLNKSEISQVFEIALKRNLPVNFEVARESGPPHMKNAVTKVSVGEFVGEGEGKSKKISKKNAAIAVLEELKKLPPLPAVERVKPRIKKKTKPIVKPQTSPEYGQGINPISRLAQIQQAKKEKEPEYTLLTERGLPRRREFVMQVKVGNHTAEGTGTNKKVAKRNAAENMLEILGFKVPQAQPTKPALKSEEKTPIKKPGDGRKVTFFEPGSGDENGTSNKEDEFRMPYLSHQQLPAGILPMVPEVAQAVGVSQGHHTKDFTRAAPNPAKATVTAMIARELLYGGTSPTAETILKNNISSGHVPHGPLTRPSEQLDYLSRVQGFQVEYKDFPKNNKNEFVSLINCSSQPPLISHGIGKDVESCHDMAALNILKLLSELDQQSTEMPRTGNGPMSVCGRC [F135A], for which the “effect of a mutation on the interaction” value is reported as “disrupting interaction”.
